Laboratory results from patent US20050214890.

System: GST-RFP-SPSS/FXa-GFP-His6 fluorescent fusion protein [GST: P08515]

Substance: coagulation factor Xa
- SDS-PAGE and Western blot of substrate cleavage products (GST-RFP and GFP-His): demonstrated specific cleavage of the substrate by FXa, as the amounts of the native proteins decreased while the amounts of the two truncated products (GST-RFP and GFP-His) increased with increasing concentrations of FXa
